Measured values published in PMC6722581.
pKd: −log10 of the molar value.

What was measured:
[1] = biological target: head domain of measles virus hemagglutinin, Edmonston vaccine strain (measles virus, Edmonston strain) (UniProt P08362); test: SPR
[2] = biological target: head domain of measles virus hemagglutinin, IC-B wild-type strain (measles virus, IC-B strain) (UniProt Q786F2); test: SPR
Chain of UniProt Q786F2 (Q786F2 149-617): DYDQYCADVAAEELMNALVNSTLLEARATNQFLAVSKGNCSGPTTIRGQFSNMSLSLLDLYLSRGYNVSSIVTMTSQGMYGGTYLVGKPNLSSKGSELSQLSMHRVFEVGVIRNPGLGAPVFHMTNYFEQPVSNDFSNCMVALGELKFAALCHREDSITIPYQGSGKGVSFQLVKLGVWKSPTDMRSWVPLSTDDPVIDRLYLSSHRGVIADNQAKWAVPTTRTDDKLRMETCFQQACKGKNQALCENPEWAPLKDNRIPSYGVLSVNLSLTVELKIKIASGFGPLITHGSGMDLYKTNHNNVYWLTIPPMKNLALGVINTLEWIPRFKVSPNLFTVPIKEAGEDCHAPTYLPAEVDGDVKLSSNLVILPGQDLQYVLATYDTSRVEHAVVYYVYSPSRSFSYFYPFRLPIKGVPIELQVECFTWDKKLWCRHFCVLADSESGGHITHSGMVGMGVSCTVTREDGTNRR

Chain of UniProt P08362 (P08362 149-617): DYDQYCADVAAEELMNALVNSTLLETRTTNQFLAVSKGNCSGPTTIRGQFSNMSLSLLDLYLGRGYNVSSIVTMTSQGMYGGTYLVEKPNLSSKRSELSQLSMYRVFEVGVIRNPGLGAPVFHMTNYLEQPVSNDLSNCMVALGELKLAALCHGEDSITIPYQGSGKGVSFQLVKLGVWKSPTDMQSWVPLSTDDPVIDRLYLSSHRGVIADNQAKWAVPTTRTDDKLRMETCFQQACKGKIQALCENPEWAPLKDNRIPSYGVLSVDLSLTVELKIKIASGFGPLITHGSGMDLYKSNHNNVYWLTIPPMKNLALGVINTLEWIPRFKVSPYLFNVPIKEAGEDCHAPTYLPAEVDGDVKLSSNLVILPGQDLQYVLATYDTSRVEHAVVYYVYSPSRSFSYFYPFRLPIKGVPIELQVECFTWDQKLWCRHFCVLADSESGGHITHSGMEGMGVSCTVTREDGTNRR

soluble human SLAM, chimeric protein of a human V-set with a mouse C2 domain (domain or fragment)
pKd [1]: 7.22 | koff [1]: 0.00291 s⁻¹ | kon [1]: 47900 M⁻¹ s⁻¹ | pKd [2]: 6.35 | koff [2]: 0.00637 s⁻¹ | kon [2]: 14100 M⁻¹ s⁻¹
